In patent US20130052670A1 (MERCK, published 2013):

Assays:
[1] = biological target: T1, Aβ oligomers (ADDLs, amyloid-β derived diffusible ligands) prepared from Aβ42 (UniProt P05067 672-713); test: one-sided ELISA on coated plates
T1 construct: domain: amyloid β peptide 1-42; Heterogeneous mixture of multimers; number of chains not defined; Concentrations are calculated on the Aβ monomer molecular weight (MW 4513); also called ADDL species of Aβ oligomers; Aβ oligomer standards
Experimental: (§1) Next day, plates were washed five times with PBS+0.05% Tween-20 and blocked overnight with Casein blocking buffer (Thermo Scientific, Waltham, Mass.) and 0.05% Tween-20. […] After two hours at room temperature incubation, the plates were washed and alkaline phosphatase conjugated anti-human IgG (ThermoScientific, Waltham, Mass.) was added at 0.08 μg/ml. After incubation for 45 minutes at room temperature, the plates were washed and Tropix CDP star (Applied Biosystems, Foster City, Calif.) was added. Luminescence was detected after 30 minutes on an EnVision® plate reader (PerkinElmer, Waltham, Mass.). Curve fits were completed using GraphPad Prism (GraphPad Software, Inc., San Diego, Calif.) software.

[2] = biological target: T1, Aβ oligomers (ADDLs, amyloid-β derived …); test: one-sided ELISA, plate coated with Aβ oligomers (50 pmol/well), 19.3 titrated, anti-human IgG-AP, luminescence
Experimental: as §1

[3] = biological target: T2, Aβ40 monomer (amyloid β peptide 1-40) (UniProt P05067 672-711); test: one-sided ELISA, plate coated with Aβ40 monomer (100 pmol/well), 19.3 titrated, anti-human IgG-AP, luminescence
T2 construct: domain: amyloid β peptide 1-40; also called monomeric Aβ40; Aβ monomer
T2 sequence (P05067 672-711 limits assumed): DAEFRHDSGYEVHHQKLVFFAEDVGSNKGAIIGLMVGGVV
Experimental: as §1

T1 sequence (P05067 672-713 limits assumed): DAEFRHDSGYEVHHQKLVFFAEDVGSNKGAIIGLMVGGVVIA

- fold greater potency than for Aβ40 monomer [1]: ~3.7 fold
- EC50 [2]: 1.6 nM
- EC50 [3]: 4.3 nM
B1: anti-Aβ oligomer antibody 19.3 (antibody, V domains shown)
VH: EVQLVESGGGLVQPGGSLRLSCAASGFTFSSFGMHWVRQAPGKGLEWVAYISRGSSTIYYADTVKGRFTISRDNAKNSLYLQMNSLRAEDTAVYYCARGITTALDYWGQGTLVTVSS
VL: DVVMTQSPLSLPVTPGEPASISCRSSQSIVHSNGNTYLEWYLQKPGQSPQLLIYKASNRFSGVPDRFSGSGSGTDFTLKISRVEAEDVGVYYCFQGSRLGPSFGQGTKLEIK
notes: In the sandwich assays it was coated on plates or covalently coupled to paramagnetic micro-particle beads; not shown: human immunoglobulin kappa light chain constant region
